Data on 1 substance can be found in article PMC8660055.

Assay [1] concerns the target PDCoV S1 protein (porcine deltacoronavirus (PDCoV)). Description: ELISA.
The target in assay [2] is PDCoV S2 protein (porcine deltacoronavirus (PDCoV)). In words: ELISA. (In general: ELISA stands for enzyme-linked immunosorbent assay.)

For the substance “Griffithsin (from UniProt P84801 1-121) (natural protein)”, the OD450 reached in ELISA amounted to 3.68 OD450 in assay [1] and 1.93 OD450 in assay [2].
